Assay results as given in article PMC6479498 (Molecules, 2019).

What was measured:
[1] = tested on: CC(=O)C(=O)O; test: purified protein; assay type: biochemical, Aspergillus terreus; details: 2.5 mM (R)-α-MBA, 0.1 mM PLP, 0.25% DMSO, 50 mM sodium phosphate pH 8.0
[2] = tested on: C[C@@H](N)c1ccccc1; test: purified protein; assay type: biochemical, Aspergillus terreus; details: 2.5 mM pyruvate, 0.1 mM PLP, 0.25% DMSO, 50 mM sodium phosphate pH 8.0
[3] = molecular target: T1, AT-ATA (WT-AT), (R)-selective amine transaminase (Aspergillus terreus, UniProt Q0C8G1); test: acetophenone formation at […] nm; assay type: biochemical; details: 2.5 mM (R)-α-MBA, 0.1 mM PLP, 0.25% DMSO, 50 mM sodium phosphate pH 8.0; read-out: Km^pyruvate
T1 construct: gene ATEG_10023
T1 sequence (Q0C8G1 1-325): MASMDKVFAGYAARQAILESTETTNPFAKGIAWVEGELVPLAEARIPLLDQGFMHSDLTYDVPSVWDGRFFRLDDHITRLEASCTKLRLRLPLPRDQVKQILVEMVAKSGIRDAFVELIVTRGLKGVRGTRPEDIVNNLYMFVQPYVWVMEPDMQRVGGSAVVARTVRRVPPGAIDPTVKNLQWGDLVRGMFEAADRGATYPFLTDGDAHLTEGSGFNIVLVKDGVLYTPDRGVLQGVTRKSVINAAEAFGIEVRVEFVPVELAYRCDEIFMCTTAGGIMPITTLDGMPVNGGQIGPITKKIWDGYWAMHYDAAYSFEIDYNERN

Row | Compound | Km [1] [µM] | Km [2] [µM] | kcat [2] [s⁻¹] | kcat/Km [2] [M⁻¹ s⁻¹] | kcat [1] [s⁻¹] | kcat/Km [1] [M⁻¹ s⁻¹] | Km [3] [µM]
1 | AT-ATA (WT-AT), (R)-selective amine transaminase (Aspergillus terreus NIH2624; L118T) | 400 ± 20 | 180 ± 10 | 1.79 ± 0.02 | 9980 |  |  | 
2 | AT-ATA (WT-AT), (R)-selective amine transaminase (Aspergillus terreus NIH2624; L118I) | 280 ± 20 | 130 ± 10 | 0.82 ± 0.01 | 6400 | 0.82 ± 0.01 | 2950 | 
3 | CC(=O)C(=O)O [pyruvate] |  |  |  |  |  |  | 230 ± 20
4 | AT-ATA (WT-AT), (R)-selective amine transaminase (Aspergillus terreus NIH2624; L118A) | 360 ± 50 | 180 ± 10 | 1.46 ± 0.01 | 7930 | 1.48 ± 0.05 | 4150 | 
5 | AT-ATA (WT-AT), (R)-selective amine transaminase (Aspergillus terreus NIH2624; L118V) | 290 ± 20 | 160 ± 10 | 0.57 ± 0.01 | 3570 | 0.51 ± 0.01 | 1760 | 
